B1: ZNF263 (parent)
chain: PEASHLRFRRFRFQEAAGPREALS

Variants of: B1
Assay: protein stability index of a GFP-peptide fusion (GPS, HEK-293T) (PSI 1-6); higher = more stable
Details: c terminus: a fixed tail appended
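Further: lentivirally expressed fusions sorted by FACS into six bins by GFP to DsRed ratio, PSI derived from sequencing read proportions per bin multiplied by bin number.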

Question: For PEASHLRFRRFRFQEAAGPREAWS [L23W], which protein stability index is on record?
Answer: 1.91

Question: With PEASHLRFRRFRFQEAAGPREAES [L23E] as the variant, how does the protein stability index read?
Answer: 3.5

Question: Which protein stability index does the source give for PEASHLRFRRFRFQEAAGPREAKS [L23K] here?
Answer: 3.35

Question: With PEASHLRFRRFRFQEAAGPREAHS [L23H] as the variant, how does the protein stability index read?
Answer: 3.05

Question: For PEASHLRFRRFRFQEAAGPREADS [L23D], which protein stability index is on record?
Answer: 3.75

Question: With PEASHFRFRRFRFQEAAGPREALS [L6F] as the variant, how does the protein stability index read?
Answer: 2.75

Question: With PEASHDRFRRFRFQEAAGPREALS [L6D] as the variant, how does the protein stability index read?
Answer: 3.62

Question: For PEASHVRFRRFRFQEAAGPREALS [L6V], which protein stability index is on record?
Answer: 3.36

Question: For PEASCLRFRRFRFQEAAGPREALS [H5C], which protein stability index is on record?
Answer: 2.55

Question: With PEASVLRFRRFRFQEAAGPREALS [H5V] as the variant, how does the protein stability index read?
Answer: 2.15

Question: With PEASQLRFRRFRFQEAAGPREALS [H5Q] as the variant, how does the protein stability index read?
Answer: 3.04

Question: For PEASYLRFRRFRFQEAAGPREALS [H5Y], which protein stability index is on record?
Answer: 1.95

Question: With PEASPLRFRRFRFQEAAGPREALS [H5P] as the variant, how does the protein stability index read?
Answer: 1.49

Question: For PEASHLRFRRFRFQEAAGPQEALS [R20Q], which protein stability index is on record?
Answer: 2.7

Question: Which protein stability index does the source give for PEASHLRFRRFRFQEAAGPEEALS [R20E] here?
Answer: 3.35

Question: With PEASHLRFRRFRFQEAAGPFEALS [R20F] as the variant, how does the protein stability index read?
Answer: 1.62

Question: Which protein stability index does the source give for PEASHLRFRRFRFQEAAGPIEALS [R20I] here?
Answer: 2.48

Question: Which protein stability index does the source give for PEASHLRFRRFRFQEAAGPWEALS [R20W] here?
Answer: 1.49

Question: For PEASHLRFRRFAFQEAAGPREALS [R12A], which protein stability index is on record?
Answer: 3.32

Question: With PEASHLRFRRFKFQEAAGPREALS [R12K] as the variant, how does the protein stability index read?
Answer: 3.64

Question: For PEASHLRFRRFSFQEAAGPREALS [R12S], which protein stability index is on record?
Answer: 4.05

Question: For PEASHLRFRRFRFQEAAQPREALS [G18Q], which protein stability index is on record?
Answer: 2.81

Question: With PEASHLRFRRFRFQEAAVPREALS [G18V] as the variant, how does the protein stability index read?
Answer: 2.38

Question: For PEASHLRFRRFRFQEAAKPREALS [G18K], which protein stability index is on record?
Answer: 2.84

Question: For PEASHLRFRRFRFQEAACPREALS [G18C], which protein stability index is on record?
Answer: 2.67

Question: With PEASHLRFRRFRTQEAAGPREALS [F13T] as the variant, how does the protein stability index read?
Answer: 4.15

Question: Which protein stability index does the source give for PEASHLRFRRFRCQEAAGPREALS [F13C] here?
Answer: 2.75

Question: Which protein stability index does the source give for PEASHLRFRRFRLQEAAGPREALS [F13L] here?
Answer: 2.65

Question: Which protein stability index does the source give for PEASHLRFRRFRYQEAAGPREALS [F13Y] here?
Answer: 2.3

Question: Which protein stability index does the source give for PEASHLRFRRFRPQEAAGPREALS [F13P] here?
Answer: 3.9

Question: Which protein stability index does the source give for PEASHLRFRRFREQEAAGPREALS [F13E] here?
Answer: 3.86

Question: With PEASHLRFRRFRSQEAAGPREALS [F13S] as the variant, how does the protein stability index read?
Answer: 4.01

Question: Which protein stability index does the source give for PEASHLLFRRFRFQEAAGPREALS [R7L] here?
Answer: 2.08

Question: For PEASHLWFRRFRFQEAAGPREALS [R7W], which protein stability index is on record?
Answer: 3.63

Question: Which protein stability index does the source give for PEASHLAFRRFRFQEAAGPREALS [R7A] here?
Answer: 3.14

Question: For PEASHLRFRRFRFTEAAGPREALS [Q14T], which protein stability index is on record?
Answer: 2.88

Question: Which protein stability index does the source give for PEASHLRFRRFRFCEAAGPREALS [Q14C] here?
Answer: 1.89

Question: For PEASHLRFRRFRFSEAAGPREALS [Q14S], which protein stability index is on record?
Answer: 2.87

Question: For PEASHLRFRRFRFREAAGPREALS [Q14R], which protein stability index is on record?
Answer: 2.59

Question: Which protein stability index does the source give for PEVSHLRFRRFRFQEAAGPREALS [A3V] here?
Answer: 1.73

Question: With PENSHLRFRRFRFQEAAGPREALS [A3N] as the variant, how does the protein stability index read?
Answer: 1.98

Question: For PEDSHLRFRRFRFQEAAGPREALS [A3D], which protein stability index is on record?
Answer: 3.1

Question: For PEASHLRFRRARFQEAAGPREALS [F11A], which protein stability index is on record?
Answer: 3.25

Question: With PEASHLRFRRSRFQEAAGPREALS [F11S] as the variant, how does the protein stability index read?
Answer: 3.53

Question: Which protein stability index does the source give for PEASHLRFRRTRFQEAAGPREALS [F11T] here?
Answer: 4.16

Question: Which protein stability index does the source give for PEASHLRFRRPRFQEAAGPREALS [F11P] here?
Answer: 4.66

Question: For PEASHLRFRRQRFQEAAGPREALS [F11Q], which protein stability index is on record?
Answer: 4.13

Question: For PEASHLRFRRFRFQEAAGIREALS [P19I], which protein stability index is on record?
Answer: 2.04

Question: Which protein stability index does the source give for PEASHLRFRRFRFQEAAGEREALS [P19E] here?
Answer: 3.39

Question: With PEASHLRFRRFRFQEAAGLREALS [P19L] as the variant, how does the protein stability index read?
Answer: 1.95

Question: With IEASHLRFRRFRFQEAAGPREALS [P1I] as the variant, how does the protein stability index read?
Answer: 2.71

Question: With AEASHLRFRRFRFQEAAGPREALS [P1A] as the variant, how does the protein stability index read?
Answer: 1.75

Question: For CEASHLRFRRFRFQEAAGPREALS [P1C], which protein stability index is on record?
Answer: 1.96

Question: With PEASHLRFRPFRFQEAAGPREALS [R10P] as the variant, how does the protein stability index read?
Answer: 2.11

Question: For PEASHLRFRQFRFQEAAGPREALS [R10Q], which protein stability index is on record?
Answer: 3.07

Question: With PEASHLRFRAFRFQEAAGPREALS [R10A] as the variant, how does the protein stability index read?
Answer: 2.18

Question: For PEASHLRFRRFRFQERAGPREALS [A16R], which protein stability index is on record?
Answer: 2.88

Question: With PEASHLRFRRFRFQEMAGPREALS [A16M] as the variant, how does the protein stability index read?
Answer: 2.15

Question: Which protein stability index does the source give for PEASHLRFRRFRFQEWAGPREALS [A16W] here?
Answer: 2.65

Question: For PEASHLRFRRFRFQECAGPREALS [A16C], which protein stability index is on record?
Answer: 2.19

Question: Which protein stability index does the source give for PEASHLRFLRFRFQEAAGPREALS [R9L] here?
Answer: 2.8

Question: For PEASHLRFNRFRFQEAAGPREALS [R9N], which protein stability index is on record?
Answer: 3.08

Question: Which protein stability index does the source give for PEASHLRFRRFRFQPAAGPREALS [E15P] here?
Answer: 2.32

Question: With PEASHLRFRRFRFQNAAGPREALS [E15N] as the variant, how does the protein stability index read?
Answer: 2.68

Question: Which protein stability index does the source give for PEASHLRFRRFRFQKAAGPREALS [E15K] here?
Answer: 2.04

Question: Which protein stability index does the source give for PEASHLRFRRFRFQIAAGPREALS [E15I] here?
Answer: 1.78

Question: With PEASHLRFRRFRFQMAAGPREALS [E15M] as the variant, how does the protein stability index read?
Answer: 2.38

Question: With PEASHLRHRRFRFQEAAGPREALS [F8H] as the variant, how does the protein stability index read?
Answer: 3.23

Question: With PEASHLRCRRFRFQEAAGPREALS [F8C] as the variant, how does the protein stability index read?
Answer: 2.69

Question: For PEASHLRKRRFRFQEAAGPREALS [F8K], which protein stability index is on record?
Answer: 3.29

Question: Which protein stability index does the source give for PEASHLRWRRFRFQEAAGPREALS [F8W] here?
Answer: 1.94

Question: With PEASHLRMRRFRFQEAAGPREALS [F8M] as the variant, how does the protein stability index read?
Answer: 2.8

Question: Which protein stability index does the source give for PEAIHLRFRRFRFQEAAGPREALS [S4I] here?
Answer: 1.7

Question: With PEARHLRFRRFRFQEAAGPREALS [S4R] as the variant, how does the protein stability index read?
Answer: 2.19

Question: With PEAMHLRFRRFRFQEAAGPREALS [S4M] as the variant, how does the protein stability index read?
Answer: 3.15

Question: For PEASHLRFRRFRFQEAAGPREALC [S24C], which protein stability index is on record?
Answer: 2.42

Question: For PEASHLRFRRFRFQEAAGPREALT [S24T], which protein stability index is on record?
Answer: 2.22

Question: Which protein stability index does the source give for PEASHLRFRRFRFQEAAGPREALL [S24L] here?
Answer: 2.65

Question: For PEASHLRFRRFRFQEAAGPREALA [S24A], which protein stability index is on record?
Answer: 2.28

Question: Which protein stability index does the source give for PEASHLRFRRFRFQEAAGPREGLS [A22G] here?
Answer: 2.98

Question: For PEASHLRFRRFRFQEAAGPREPLS [A22P], which protein stability index is on record?
Answer: 3.7

Question: Which protein stability index does the source give for PEASHLRFRRFRFQEAAGPREHLS [A22H] here?
Answer: 2.57

Question: For PEASHLRFRRFRFQEAAGPREMLS [A22M], which protein stability index is on record?
Answer: 2.37

Question: With PEASHLRFRRFRFQEAAGPRELLS [A22L] as the variant, how does the protein stability index read?
Answer: 2.51

Question: Which protein stability index does the source give for PEASHLRFRRFRFQEAAGPREQLS [A22Q] here?
Answer: 2.78

Question: Which protein stability index does the source give for PEASHLRFRRFRFQEACGPREALS [A17C] here?
Answer: 2.14

Question: For PEASHLRFRRFRFQEAIGPREALS [A17I], which protein stability index is on record?
Answer: 2.15

Question: With PRASHLRFRRFRFQEAAGPREALS [E2R] as the variant, how does the protein stability index read?
Answer: 2.84

Question: For PSASHLRFRRFRFQEAAGPREALS [E2S], which protein stability index is on record?
Answer: 2.52

Question: Which protein stability index does the source give for PNASHLRFRRFRFQEAAGPREALS [E2N] here?
Answer: 2.52

Question: With PYASHLRFRRFRFQEAAGPREALS [E2Y] as the variant, how does the protein stability index read?
Answer: 1.82

Question: Which protein stability index does the source give for PEASHLRFRRFRFQEAAGPRQALS [E21Q] here?
Answer: 3.03

Question: For PEASHLRFRRFRFQEAAGPRWALS [E21W], which protein stability index is on record?
Answer: 2.01

Question: Which protein stability index does the source give for PEASHLRFRRFRFQEAAGPRHALS [E21H] here?
Answer: 2.84

Source: the supplement of paper PMC10567573
